Measured values taken from article PMC3103433 (2011).

B1: His-6-Munc18c [not stated] / Sx4-GST, wild-type Syntaxin 4 cytosolic domain (residues 1-273) [not stated] (parent complex)
chain 1: MAPPVSERGLKSVVWRKIKTAVFDDCRKEGEWKIMLLDEFTTKLLSSCCKMTDLLEEGITVIENIYKNREPVRQMKALYFISPTPKSVDCFLRDFGSKSEKKYKAAYIYFTDFCPDSLFNKIKASCSKSIRRCKEINISFIPQESQVYTLDVPDAFYYCYSPDPSNASRKEVVMEAMAEQIVTVCATLDENPGVRYKSKPLDNASKLAQLVEKKLEDYYKIDEKGLIKGKTQSQLLIIDRGFDPVSTVLHELTFQAMAYDLLPIENDTYKYKTDGKEKEAVLEEDDDLWVRVRHRHIAVVLEEIPKLMKEISSTKKATEGKTSLSALTQLMKKMPHFRKQISKQVVHLNLAEDCMNKFKLNIEKLCKTEQDLALGTDAEGQRVKDSMLVLLPVLLNKNHDNCDKIRAVLLYIFGINGTTEENLDRLIHNVKIEDDSDMIRNWSHLGVPIVPPSQQAKPLRKDRSAEETFQLSRWTPFIKDIMEDAIDNRLDSKEWPYCSRCPAVWNGSGAVSARQKPRTNYLELDRKNGSRLIIFVIGGITYSEMRCAYEVSQAHKSCEVIIGSTHILTPRKLLDDIKMLNKSKDKVSFKDE
chain 2: MRDRTHELRQGDNISDDEDEVRVALVVHSGAARLGSPDDEFFQKVQTIRQTMAKLESKVRELEKQQVTILATPLPEESMKQGLQNLREEIKQLGREVRAQLKAIEPQKEEADENYNSVNTRMKKTQHGVLSQQFVELINKCNSMQSEYREKNVERIRRQLKITNAGMVSDEELEQMLDSGQSEVFVSNILKDTQVTRQALNEISARHSEIQQLERSIRELHEIFTFLATEVEMQGEMINRIEKNILSSADYVERGQEHVKIALENQKKARKKK
B2: His-6-Munc18c [not stated] / Sx4 lacking the N-terminal 36 amino acids (N36Δ), GST fusion [not stated] (parent complex)
chain 1: B1 chain 1
chain 2: PDDEFFQKVQTIRQTMAKLESKVRELEKQQVTILATPLPEESMKQGLQNLREEIKQLGREVRAQLKAIEPQKEEADENYNSVNTRMKKTQHGVLSQQFVELINKCNSMQSEYREKNVERIRRQLKITNAGMVSDEELEQMLDSGQSEVFVSNILKDTQVTRQALNEISARHSEIQQLERSIRELHEIFTFLATEVEMQGEMINRIEKNILSSADYVERGQEHVKIALENQKKARKKK

Variants of: B1
Assay: GST pull-down, anti-Munc18c immunoblot quantification; 1 μg GST fusion on glutathione-Sepharose, 1 μg Munc18c, binding buffer, overnight, 4°C; read off a plot

percent of parent	Variant
~73 % of wild-type Sx4	chain 2 MRDRTHELRQGDNISDDEDEVRVALVVHSGAARLGSPDDEFFQKVQTIRQTMAKLESKVRELEKQQVTILATPLPEESMKQGLQNLREEIKQLGREVRAQLKAIEPQKEEADENYNSVNTRMKKTQHGVLSQQFVELINKCNSMQSEYREKNVERIRRQLKITNAGMVSDEEAAQMLDSGQSEVFVSNILKDTQVTRQALNEISARHSEIQQLERSIRELHEIFTFLATEVEMQGEMINRIEKNILSSADYVERGQEHVKIALENQKKARKKK [chain 2 L173A, chain 2 E174A]

Variants of: B1
Assay: GST pull-down, anti-Munc18c immunoblot quantification; 1 μg GST fusion on glutathione-Sepharose, 1 μg Munc18c, binding buffer, overnight, 4°C; n=3; read off a plot

percent of parent	Variant
~89 % of wild-type Sx4	chain 2 MRDRTHELRQGDNISDDEDEVRVALVVHSGAARLGSPDDEFFQKVQTIRQTMAKLESKVRELEKQQVTILATPLPEESMKQGLQNLREEIKQLGREVRAQLKAIEPQKEEADENYNSVNTRMKKTQHGVLSQQFVELINKCNSMQSEYREKNVERIRRQLKITNAGMVSDEEAAQMLDSGQSEVFVSNILKDTQVTRQALNEISARHSEIQQLERSIRELHEIFTFLATEVEMQGEMINRIEKNILSSADYVERGQEHVKIALENQKKARKKK [chain 2 L173A, chain 2 E174A]

Variants of: B2
Assay: GST pull-down, anti-Munc18c immunoblot quantification; 1 μg GST fusion on glutathione-Sepharose, 1 μg Munc18c, binding buffer, overnight, 4°C; read off a plot

screen value	Variant
~13 % of wild-type Sx4	chain 2 PDDEFFQKVQTIRQTMAKLESKVRELEKQQVTILATPLPEESMKQGLQNLREEIKQLGREVRAQLKAIEPQKEEADENYNSVNTRMKKTQHGVLSQQFVELINKCNSMQSEYREKNVERIRRQLKITNAGMVSDEEAAQMLDSGQSEVFVSNILKDTQVTRQALNEISARHSEIQQLERSIRELHEIFTFLATEVEMQGEMINRIEKNILSSADYVERGQEHVKIALENQKKARKKK [chain 2 L137A, chain 2 E138A]

Variants of: B2
Assay: GST pull-down, anti-Munc18c immunoblot quantification; 1 μg GST fusion on glutathione-Sepharose, 1 μg Munc18c, binding buffer, overnight, 4°C; n=3; read off a plot

screen value	Variant
~18 % of wild-type Sx4	chain 2 PDDEFFQKVQTIRQTMAKLESKVRELEKQQVTILATPLPEESMKQGLQNLREEIKQLGREVRAQLKAIEPQKEEADENYNSVNTRMKKTQHGVLSQQFVELINKCNSMQSEYREKNVERIRRQLKITNAGMVSDEEAAQMLDSGQSEVFVSNILKDTQVTRQALNEISARHSEIQQLERSIRELHEIFTFLATEVEMQGEMINRIEKNILSSADYVERGQEHVKIALENQKKARKKK [chain 2 L137A, chain 2 E138A]
